The source of these data is paper PMC8299219 (Cell, 2021).

The experiment concerns the target SARS-CoV-2 S ectodomain trimer, prefusion-stabilized, 2P variant (Wrapp et al., 2020) (SARS-CoV-2, Wuhan-Hu-1, UniProt P0DTC2, stabilised).

Changes are numbered by the printed parent chain.

B1: G32M2 (antibody, V domains shown)
VH: QVQLVESGGGVVQPGRSLRLSCAASGFTFSSYAMHWVRQAPGKGLEWVAVISYDGNNKYYADSVKGRFTISRDNSKNTLYLQMNSLRAEDTAMYYCARAKGGGYYYGMDVWGQGTTVTVSS
VL: SYELTQPPSVSVAPGQTARITCGGNNIGSKSVHWYQQKPGQAPVLVVYDDSDRPSGIPERFSGSNSGNTATLTISRVEAGDEADYYCQVWDSSSDPYWVFSGGTKLTVL
With B1, the binding result is “binds”.

B2: C81C3 (antibody, V domains shown)
VH: EVQLVQSGAEVKKPGESLRISCKGSGYSFTSYWISWVRQMPGKGLEWMGRIDPSDSYTNYSPSFQGHVTISADKSISTAYLQWSSLKASDTAMYYCAIHGYYDSSGYYLPHGFDIWGQGTMVTVSS
VL: B1 VL with Q16K, K30T, S51G, Y97N, S101G
B2: the binding result was “binds”.

B3: C93E12 (antibody, V domains shown)
VH: QVQLVEAGGGVVQPGTSLRLSCAASGFTFSNYAIQWVRQAPGKGPEWVALISYDGSNKYYADPVKGRFTLSRDNSKNTLYLQMNSLRAEDTAVYYCARGIRGGYNDAFDIWGQGTMVTVSS
VL: DIQLTQSPSFLSASVGDRVTITCRASQGISSYLTWYQQKPGKAPKLLIYAASTLQSGVPSRFSGSGSGTEFTLTISSLQPEDFATYYCQQVTSYPITFGQGTRLEIK
As for B3, the binding result is “binds”.

B4: C18C8 (antibody, V domains shown)
VH: EVQLVESGGGLVQPGRSLRLSCTTSGFTFGDYAMSWVRQAPGKGLEWVGFIRSKAYGGTTEYAASVKGRFTISRDDSKSIAYLQMNSLKTEDTAVYCCTRGLKVEPYYFDYWGQGTLVTVSS
VL: not shown
As for B4, the binding result is given as “binds”.

B5: G32L8 (antibody, V domains shown)
VH: EVQLVQSGAEVKKPGESLKISCKGSGYSFTSYWIGWVRQMPGKGLEWMGIIYPGDSDTRYSPSFQGQVTISADKSISTAYLQWSSLKASDTAMYYCARRYAVYSSGWYYWYFDLWGRGTLVTVSS
VL: not shown
Turning to B5, the binding result is “binds”.

B6: C7A2 (antibody, V domains shown)
VH: EVQLLESGGGLVQPGGSLRLSCAASGFIFSNYVVSWVRQAPGKGLEWVSGISVNGDTTFYADSVKGRFTISRDNSKNTLYLQMNSLRAEDTAVYYCAKVRGYCSGGRGCMDVWGQGTTVTVSS
VL: DIQLTQSPSSLSASVGDRVTITCQASQDIGNTLAWYQQKPGKAPNLLIYDASSLQSGVPSRFSGSVSGTDFTLTITSLQLEDFATYYCQQFNTYPALTFGGGTKVEIK
B6: the binding result is on record as “binds”.

B7: C7I5 (antibody, V domains shown)
VH: B6 VH
VL: B6 VL with A13P, Q24R, S65T, L80P, Y87F
Consider B7, for which the binding result is given as “binds”.

B8: G32B2 (antibody, V domains shown)
VH: QLQLQESGPGLVKPSETLSLTCTVSGGSISSSSYYWGWIRQPPGKGLEWIGSIYYSGSTYYNPSLKSRVTISVDTSKNQFSLKLSSVTAADTAVYYCARTVASYYDSSAYLTLGYFDYWGQGTLVTVSS
VL: SYELTQPPSVSVSPGQTARITCSGDALPKKYAYWYQQKSGQAPVLVIYEDSKRPSGIPERFSGSSSGTMATLTISGAQVEDEADYYCYSTDSSGNHNYVFGTGTKVTVL
As for B8, the binding result was “binds”.

B9: C12E6 (antibody, V domains shown)
VH: QVQLQESGSGLVKPSQTLSLTCAVSGGSISSGGYSWSWIRQPPGKGLEWIGYIYHSGSTYYNPSLKSRVTISVDRSKNQFSLKLSSVTAADTAVYYCARSGFLEWLRRVDAFDIWGQGTMVTVSS
VL: QSALTQPASVSGSPGQSITISCTGTSSDVGGYNYVSWYQQHPGKAPKLMIYDVSNRPSGVSNRFSASKSGNTASLTISGLQAEDEADYYCSSYTSSSTRVFGGGTKLTVL
B9: the binding result was “binds”.

B10: C163D5 (antibody, V domains shown)
VH: EVQLVESGGGLVQPGGSLRLSCAASGFTFSSYWMHWVRQAPGKGLVWVSRTNSDGSSTNYADSVKGRFTISRDNAKNTLYLQMNSLRAEDTAVYYCARPQFYVWGSDRADYGMDVWGQGTTVTVSS
VL: B9 VL with Y34S, D52E, A66G, T94R, R99L
As for B10, the binding result was “binds”.

B11: C882C6 (antibody, V domains shown)
VH: QVQLVESGGGVVQPGRSLRLSCAASGFTFSNFAIHWVRQAPGKGLEWVAVVSYDGGNKYYADSVKGRFTISRDNSKNTLYLQMNSLRAEDTSVYYCARSGSGNYYGWFDPWGQGTLVTVSS
VL: B9 VL with G31S, Y34L, D52E, V53G, N55K, A66G, S91C, T94A, S95G, R99W
For the molecule B11, the binding result was “binds”.

B12: C30A8 (antibody, V domains shown)
VH: QVQLVESGGGLVKPGGSLRLSCAASGFTFSDSYMSWIRQAPGKGLEWVSYISSSSSYTNYADSVKGRFTISRDNAKNSLYLQMNSLRAEDTAVYYCARDRVPPYSSGWYYFDYWGQGTLVTVSS
VL: B9 VL with D52E, A66G, G70D, R99Y, G103T, L107V
As to B12, the binding result is “binds”.

B13: C30B10 (antibody, V domains shown)
VH: QVQLVESGGGVVQPGRSLRLSCAASGFTFSSYGMHWVRQAPGKGLEWVAVIWYDGSNKYYADSVKGRFTISRDNSKNTLYLQMNSLRAEDTAVYYCARDYPFSGSYYGDAFDIWGQGTMVTVSS
VL: SYELTQPPSVSVSPGQTARITCSGDALPKKYAYWYQQKSGQAPVLVIYEDSKRPSGIPERFSGSSSGTMATLTISGAQVEDEADYYCYSTDSSGNRWVFGGGTKLTVL
For the molecule B13, the binding result is reported as “binds”.

B14: C102A5 (antibody, V domains shown)
VH: QVQLVESGGGVVQPGRSLRLSCAASGFTFSTYAMHWVRQAPGKGLEWVAVISYDGSNKYYADSVKGRFTISRDNSKNTLYLQMNSLRAEDTAVYYCARDLGTYRWFDPWGQGTLVTVSS
VL: DIQMTQSPSSVSASVGDRVTITCRASQGISSWLAWYQQKPGKAPKLLIYAASSLQSGVPSRFSGSGSGTDFTLTISSLQSEDFATYYCQQANSFPSFTFGPGTKVEIK
As to B14, the binding result was “binds”.

B15: G32Q6 (antibody, V domains shown)
VH: EVQLLESGGGLVQPGGSLRLSCAASGFTFSNYAMNWVRQAPGKGLEWVSGISGNGVNTFYADSVKGRFTISRDNSRNTLYLQMNSLRAEDTAVYYCAKAIQTYSNYVLGADYWGQGTLVTVSS
VL: QSALTQPRSVSGSPGQSVTISCTGTNSDVGNYNFVSWYQQHPGRAPKLMIYDVSKRPSGVPDRFSGSKSDNTASLTISGLQAEDQADYYCCSYATSYTFRVVFGGGTKLTVL
As to B15, the binding result was “binds”.

B16: C53F12 (antibody, V domains shown)
VH: QVQLVQSGAEVKKPGSSVKVSCKASGGTFSSYAISWVRQAPGQGLEWMGGIIPIFGTANYAQKFQGRVTITADESTSTAYMELSSLRSEDTAVYYCARMYYYVSGSYHYFDYWGQGTLVTVSS
VL: EIVLTQSPATLSLSPGERATLSCRASQSVSSYLAWYQQKPGQAPRLLIYDASNRATGIPARFSGSGSGTDFTLTISSLEPEDFAVYYCQQRSNWPPALTFGGGTKVEIK
Take B16: the binding result is on record as “binds”.

B17: C102B1 (antibody, V domains shown)
VH: QVQLVQSGAEVKKPGSSVKVSCKASGGTFSSYAISWVRQAPGQGLEWMGGIIPIFGTANYAQKFQGRVTITADESTSTAYMELSSLRSEDTAVYCCARDRGYCTGGVCSNYYYGIDVWGQGTTVTVSS
VL: B16 VL with A97S, L98Y, G102Q, V106L
For B17, the binding result was “binds”.

B18: C81E9 (antibody, V domains shown)
VH: QVQLVESGGGVVQPGRSLRLSCAASGFTFSSYAMHWVRQAPGKGLEWVAVISYDGSNKYYADSVKGRFTISRDNSKNTLFLQMNSLRPEDTAVYYCIAARNYYYMDVWGKGTTVTVSS
VL: not shown
As to B18, the binding result is given as “binds”.

B19: C53E12 (antibody, V domains shown)
VH: QVQLVESGGGVVQPGRSLRLSCAASGFTFSSYGMHWVRQAPGKGLEWVAVISYDGSNKYYVDSVKGRFTISRDNSKNTLYLQMNSLRAEDTAVYYCAKGTEIVVVPADYFDYWGQGTLVTVSS
VL: EIVLTQSPATLSLSPGERATLSCRASQSVSSYLAWYQQKPGQAPRLVIYDASNRATGIPARFSGSGSGTDFTLTISSLEPEDFAVYYCQQRSNWPGFTFGPGTKVDIK
Consider B19, for which the binding result is “binds”.

B20: C12I7 (antibody, V domains shown)
VH: QVQLQESDPGLVQPSETLSLTCTVSRGSISSYYWSWIRQPPGKGLEWIGYIYYSGSTNYNPSLKSRVTISVDTSKNQFSLKLSSVTAADTAVYYCARVGYYDSSAYLKLGSIDYWGQGILVTVSS
VL: not shown
Regarding B20, the binding result is on record as “binds”.

B21: C83B10 (antibody, V domains shown)
VH: QVQLVESGGGVVQPGRSLRLSCAASGFTFSIYAIHWVRQAPGKGLEWVALISYDGSNKYYADSVKGRFTISRDNSKNTLYLQMNSLRAEDTAVYYCARARGGSYSDAFDIWGQGTMVTVSS
VL: not shown
For B21, the binding result was “binds”.

B22: C12B8 (antibody, V domains shown)
VH: QVQLVESGGGVVQPGRSLGLSCAASGFTFSSYAMHWVRQAPGKGLEWVAVISYDGSNKADSVKGRFTISRDNSNNTLYLQMNSLRAEDTAVYYCAREGVVVTAPLDYWGQGTLVTVSS
VL: not shown
Turning to B22, the binding result is recorded as “binds”.

B23: G32C5 (antibody, V domains shown)
VH: QVQLVESGGGVVQPGRSLRLSCAASGFTFSSYAMHWVRQAPGKGLEWVAVISYDGSNKYYADSVKGRFTISRDNSKNTLYLQMNSLRAEDTAVYYCARGKSGSYFGSFDYWGQGTLVTVSS
VL: not shown
Turning to B23, the binding result is given as “binds”.

B24: C81H4 (antibody, V domains shown)
VH: B21 VH with I31S, A33G, I34M, L50V, Y80C, R98K, A99G, S105Y
VL: not shown
In the case of B24, the binding result is given as “binds”.
